According to the RNAGym collection of RNA variant scans (doi:10.7554/elife.80360):

B1: Hairpin Ribozyme (parent)
chain: GUCCUCUUUCACGUGCGCGUGAAAGAGAGAAGUGAACCAGAGAAACACACGUUGUGGUAUAUUACCUGGUA

Variants of: B1
Experiment: self-cleavage, relative activity (ratio to wild type); higher = more cleavage; co-transcriptional

Variant	self-cleavage
GUCCUCUUUAACGUGCGCGUGAAAGAGAGCAGUGAACCAGAGAAACACACGUUGUGGUAUAUUACCUGGUA [C10A A30C]	0.122
GUCCUCUUUCACGGGCGCGUGAAAGAGAGAAGUGAACCAGAGAAACACACGUUGUGGAAUAUUACCUGGUA [U14G U58A]	0.753
GUCCUCUUUCACGUGCGCGUGAAUGAGAGAAGUUAACCAGAGAAACACACGUUGUGGUAUAUUACCUGGUA [A24U G34U]	1.22
GUCCUCUUUCACGUGCGCGUGAAAGAGAGAAGUGAACCAAAGAGACACACGUUGUGGUAUAUUACCUGGUA [G40A A44G]	0.144
GUCCUCUUUCACGUGCGCGUGAAAGAGAGAAAUGAACCUGAGAAACACACGUUGUGGUAUAUUACCUGGUA [G32A A39U]	0.108
GUCCUCUUUUACGUGCGCGUGAAAGAGAGAAGUGAACCAGAGAAACACUCGUUGUGGUAUAUUACCUGGUA [C10U A49U]	0.0687
GUCCUCUUUCACGUGCGCGUGACAGAGAGAAGUCAACCAGAGAAACACACGUUGUGGUAUAUUACCUGGUA [A23C G34C]	1.26
GGCCUCUUUCACGUGCGCGUGAAAGAGAGAAGUGAACCAGAGAAACACACGUUGUGGUAUAUUAACUGGUA [U2G C65A]	0.402
GUCCUCUUUCACGUGCGCGUGAAAGAGAGAAGUGAACCAGAGAAACACACGUUGUUGUAUAUUACGUGGUA [G56U C66G]	0.22
GUCCCCUUUCACGUGCGCGUGAAAGAGAGAAGUGAGCCAGAGAAACACACGUUGUGGUAUAUUACCUGGUA [U5C A36G]	0.502
GUCCUCUUUCACGUGAGCGUGAAAGAGAGAAGUGAACCAGAGAAACCCACGUUGUGGUAUAUUACCUGGUA [C16A A47C]	0.365
GUCCUCUUUCACGUGCGCGUGAAAGAGAGAAGUGAACCAGAGAAACACACGUUGUCGUAUAUUACCUGGGA [G56C U70G]	0.0624
GCCCUCUUUCACGUGCGCGUGAAAGAGAGAAGUGAACCAGAGAAACACACGUUGUGGUAUAUUACCCGGUA [U2C U67C]	0.0838
GUCCUCUUUCACGUGCGCGUGAAAGAGAGAAGUGAAGCAGAGAAACACACGUUGUGGUGUAUUACCUGGUA [C37G A59G]	0.0514
GUCCUCUUUCACGUGCGCGUGAAAGAGAGAACUGAACCAGAGAAAUACACGUUGUGGUAUAUUACCUGGUA [G32C C46U]	0.109
GUACUCUUUCACGUGCGCGUGAAAGAGAGAAGUAAACCAGAGAAACACACGUUGUGGUAUAUUACCUGGUA [C3A G34A]	1.07
GUCCUCUUUCACGUGCGCGUGAAAGAGAGAAGUGAACCGGAGCAACACACGUUGUGGUAUAUUACCUGGUA [A39G A43C]	0.137
GUCCUCUUUCACGUGCGCGUGAAAGAGAAAAGUGAACCAGAGAAACACACGUUGUGGUAUAUUACCUGCUA [G29A G69C]	0.14
GUCCUCUUUCCCGUGCGCGUGAAAGAGAGAAGUGAACCAGAGAAACUCACGUUGUGGUAUAUUACCUGGUA [A11C A47U]	0.251

Variant	self-cleavage
GUCCUCUUUCACGUGCGCGUGAAAGAGAGAAGUGAACCAGAGACACACACGUUGUGGUCUAUUACCUGGUA [A44C A59C]	0.15
GUCCUCUUUCACGUGCGCGUGAAAGAGAGAAGUGAAUCAGAGAAACACACGUUGUGGUAUAUAACCUGGUA [C37U U63A]	0.24
GUCCUCUUUCACGUGCGCGUGAAAGAGAGAAGUGAAGCAGAGAAACACACGUCGUGGUAUAUUACCUGGUA [C37G U53C]	0.586
GUCCUCUUUCACGUGCUCGUGAAAGAGAGAAGUGAACCAGAGAAACACACGUCGUGGUAUAUUACCUGGUA [G17U U53C]	0.828
GUCCUCUUUCACCUGCGCGUGAAAGAGAGAAGUGAACCAGAGAGACACACGUUGUGGUAUAUUACCUGGUA [G13C A44G]	0.127
GUCCUCUUUCACGUGCGCGCGAAAGAGAGAAGUGAACCAGAGAAACACACGUUGUGGUAUAUUUCCUGGUA [U20C A64U]	0.152
AUCCUCUUUCACGUGCGCGUGAAUGAGAGAAGUGAACCAGAGAAACACACGUUGUGGUAUAUUACCUGGUA [G1A A24U]	0.191
GUCUUCUUUCUCGUGCGCGUGAAAGAGAGAAGUGAACCAGAGAAACACACGUUGUGGUAUAUUACCUGGUA [C4U A11U]	0.256
GUCCUGUUUCACGUGCGCGUGAAAGAGAGAAGUGAACCAGAGAAACGCACGUUGUGGUAUAUUACCUGGUA [C6G A47G]	0.0875
GUCCUCUUUCACGUGCGCGUGAAAGAUAGAAGUGAACCAGAGAAAAACACGUUGUGGUAUAUUACCUGGUA [G27U C46A]	0.13
GUCCUGUUUCACGUGCGCGUGAAAGAGAGAAGUGAACCAGAGAAACACACGUUGUGGUAUAUUACGUGGUA [C6G C66G]	0.166
GUCCUCUUUCACGUGCGCGUGAAAGAGAGAAGUGAACUAGAGAAACACACGUUGUGGUAUAUCACCUGGUA [C38U U63C]	0.128
GUCCUCUUUCACGUGCGCGUGAAAGAGAGAAGUGAACCAGACAAGCACACGUUGUGGUAUAUUACCUGGUA [G42C A45G]	0.095
GUCCUCUUUCACGUGCGCGUGAGAGAGAGAAGUGAACCAGAGAAACACACGUUGUAGUAUAUUACCUGGUA [A23G G56A]	0.186
GUCCUCUUUCACGUGCGCUUGAAAGGGAGAAGUGAACCAGAGAAACACACGUUGUGGUAUAUUACCUGGUA [G19U A26G]	0.849
GUCCUCUUUCACGUGCGCGUGAAAGAGAGAAGUGAACCAUAGAAACACACCUUGUGGUAUAUUACCUGGUA [G40U G51C]	0.104
GUCCUCUUUCACGUGCGCGUGAAAGAGAGAAGUGAACCAGAGAAAUACACGUUGUGGUAUAUCACCUGGUA [C46U U63C]	0.106
GUCCUCUUUCACGUGCGCGUGAAAGAGAGAAGUGAACCAGCGAAACACGCGUUGUGGUAUAUUACCUGGUA [A41C A49G]	0.561
GUCCUCUUUCACGUGCGCGUGAACGAGAGAAGUGAACCAGAGAAACACACGUUGUGUUAUAUUACCUGGUA [A24C G57U]	0.14
